Data from PMC3963969.

Target: Rad4/Cut5 (UniProt P32372)
Test: anti-HA IP of Rad9, anti-Rad4 blot
Details: reference: wild-type Rad9; sites T412

binding against the reference: lost
Substance: Rad9 (from UniProt P26306) Rad9-T412A
